Earlier results as cited in article PMC4859893.

Molecular target: EGFR (Homo sapiens) (UniProt P00533)

Kd: 2 nM
Substance: EGF (from UniProt P01133)
